# Assay results published in PMC9313131 (2022).
# B1: CDC37 (cell division cycle 37), wild type, full-length (natural protein)
# chain: MVDYSVWDHIEVSDDEDETHPNIDTASLFRWRHQARVERMEQFQKEKEELDRGCRECKRKVAECQRKLKELEVAEGGKAELERLQAEAQQLRKEERSWEQKLEEMRKKEKSMPWNVDTLSKDGFSKSMVNTKPEKTEEDSEEVREQKHKTFVEKYEKQIKHFGMLRRWDDSQKYLSDNVHLVCEETANYLVIWCIDLEVEEKCALMEQVAHQTIVMQFILELAKSLKVDPRACFRQFFTKIKTADRQYMEGFNDELEAFKERVRGRAKLRIEKAMKEYEEEERKKRLGPGGLDPVEVYESLPEELQKCFDVKDVQMLQDAISKMDPTDAKYHMQRCIDSGLWVPNSKASEAKEGEEAGPGDPLLEAVPKTGDEKDVSV
# How the values were obtained:
# [1] = molecular target: B1; experiment: ITC
# [2] = molecular target: sBRAF V600E (solubilized BRAF kinase domain, residues 423-723, V600E) (human, UniProt P15056 423-723, V600E); experiment: ITC
Ka [1],Ka [2],Binder
965000 M⁻¹,–,"sBRAF, solubilized version of BRAF kinase domain (residues 423-723), V600 background (domain or fragment) QRERKSSSSSEDRNRMKTLGRRDSSDDWEIPDGQITVGQRIGSGSFGTVYKGKWHGDVAVKMLNVTAPTPQQLQAFKNEVGVLRKTRHVNILLFMGYSTKPQLAIVTQWCEGSSLYHHLHASETKFEMKKLIDIARQTARGMDYLHAKSIIHRDLKSNNIFLHEDNTVKIGDFGLATVKSRWSGSHQFEQLSGSILWMAPEVIRMQDSNPYSFQSDVYAFGIVLYELMTGQLPYSNINNRDQIIEMVGRGSLSPDLSKVRSNCPKRMKRLMAECLKKKRDERPSFPRILAEIEELARELSG"
–,2.44e+06 M⁻¹,B1
